Where only a bound is given, the exact number is not on record here.

The results in this text go back to article PMC2856694.

The assay has as its target T1, gp96 from normal mouse organs (mouse (endogenous in mouse organs)), P08113.
T1 chain: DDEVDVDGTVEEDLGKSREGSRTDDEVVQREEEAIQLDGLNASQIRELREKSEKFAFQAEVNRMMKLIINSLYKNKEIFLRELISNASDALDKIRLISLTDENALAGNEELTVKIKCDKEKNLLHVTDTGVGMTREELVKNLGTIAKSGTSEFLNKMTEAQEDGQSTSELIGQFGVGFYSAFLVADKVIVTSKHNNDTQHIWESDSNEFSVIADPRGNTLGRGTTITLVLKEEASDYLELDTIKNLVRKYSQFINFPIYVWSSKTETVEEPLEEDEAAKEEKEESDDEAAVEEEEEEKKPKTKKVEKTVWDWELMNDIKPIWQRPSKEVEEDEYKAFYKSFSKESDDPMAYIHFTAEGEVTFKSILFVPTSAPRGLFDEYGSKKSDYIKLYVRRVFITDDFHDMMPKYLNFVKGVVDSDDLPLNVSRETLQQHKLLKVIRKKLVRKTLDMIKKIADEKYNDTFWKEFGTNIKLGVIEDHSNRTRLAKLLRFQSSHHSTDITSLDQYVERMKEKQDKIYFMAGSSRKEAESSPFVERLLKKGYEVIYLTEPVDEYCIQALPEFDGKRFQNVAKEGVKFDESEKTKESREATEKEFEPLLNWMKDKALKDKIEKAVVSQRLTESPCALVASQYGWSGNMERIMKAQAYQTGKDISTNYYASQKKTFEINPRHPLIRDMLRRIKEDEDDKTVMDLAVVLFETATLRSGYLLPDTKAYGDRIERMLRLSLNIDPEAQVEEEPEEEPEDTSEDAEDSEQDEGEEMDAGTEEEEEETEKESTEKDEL
As to the kind of experiment: non-reducing SDS-PAGE with immunoblot. Conditions: remark: other sources report otherwise.

B1: gp96 from normal mouse organs, P08113 22-802 (natural protein)
chain: T1 chain
B1 had a percent of total gp96 migrating at ~200 kDa (disulfide-linked dimer) below 50%.
